The values below come from article PMC11703243.

The target of assay [1] is BAX, recombinant human, wild type (human) (UniProt Q07812). Nature of the assay: SEC. A general note: SEC sorts molecules by how far they enter the pores of the column.
For assay [2], the target named is Alexa Fluor 488-labeled BAX^WT (human) (UniProt Q07812). In words: SEC.

For orientation: stoichiometry N means the number of molecules, sites or subunits per partner or assembly. For “BAX, recombinant human, wild type (from UniProt Q07812 1-192) (natural protein)”, in assay [1], the stoichiometry N was 2.
As for “Alexa Fluor 488-labeled BAX^WT (from UniProt Q07812 1-192) (natural protein)”, in assay [2], the stoichiometry N is 2.
